Results as given in patent publication US20200140561A1 (BLUEFIN BIOMEDICINE, published 2020).

T1: human IL1RAP (human, UniProt Q9NPH3 21-570)
T1 sequence: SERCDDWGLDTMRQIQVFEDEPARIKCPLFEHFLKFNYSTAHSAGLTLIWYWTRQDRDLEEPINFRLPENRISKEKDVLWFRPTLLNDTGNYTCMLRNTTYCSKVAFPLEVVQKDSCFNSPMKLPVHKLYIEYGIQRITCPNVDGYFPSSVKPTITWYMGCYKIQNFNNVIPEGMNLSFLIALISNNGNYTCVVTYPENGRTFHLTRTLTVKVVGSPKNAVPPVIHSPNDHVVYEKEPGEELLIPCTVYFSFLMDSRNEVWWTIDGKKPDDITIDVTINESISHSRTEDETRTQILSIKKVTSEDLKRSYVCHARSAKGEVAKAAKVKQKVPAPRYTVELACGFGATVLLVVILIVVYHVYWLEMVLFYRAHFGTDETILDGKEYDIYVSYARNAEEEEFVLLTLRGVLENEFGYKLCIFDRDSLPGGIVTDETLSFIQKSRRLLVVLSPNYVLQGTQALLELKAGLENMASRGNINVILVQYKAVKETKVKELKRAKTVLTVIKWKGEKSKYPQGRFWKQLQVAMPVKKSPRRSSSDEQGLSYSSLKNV


How the values were obtained:
Experiment in all cases: cell-based or functional assay
human IL1RAP [1] = target: T1, human IL1RAP
human IL1RAP [2] = target: T1, human IL1RAP; remark: listed apart in the source
human IL1RAP [3] = target: T1, human IL1RAP; remark: listed apart in the source
human IL1RAP [4] = target: T1, human IL1RAP; remark: listed apart in the source

Binder | EC50 (inhibition of IL-33 signalling, HEK-Blue IL-33 reporter cells, 0.5 ng/ml IL-33, Abs. 620 nm; partial) (human IL1RAP [1]) | EC50 (inhibition of IL-1alpha signalling, HEK-Blue IL-1beta reporter cells, 0.5 ng/ml IL-1a, Abs. 620 nM) (human IL1RAP [2]) | EC50 (inhibition of IL-1beta signalling, HEK-Blue IL-1beta reporter cells, 0.5 ng/ml IL-1beta, Abs. 620 nM) (human IL1RAP [3]) | EC50 (inhibition of IL-33 signalling, HEK-Blue IL-33 reporter cells, 0.5 ng/ml IL-33, Abs. 620 nm; partial, lower plateau about 0.4) (human IL1RAP [1]) | EC50 against IL-1α (IL-1 signaling reporter cell assay) (human IL1RAP [4]) | EC50 against IL-1β (IL-1 signaling reporter cell assay) (human IL1RAP [4])
36A10_21B6 (antibody, V domains shown) VH: QGQVVESGGGVVQPGRSLRLSCAASGFTFSSYTLHWVRQAPGKGLEWVAVIWYDGSNKYYVDSVKGRFTISRDNSKNTLYLQMNSLRAEDTAVYYCAREYGSGSYYNVYYGMDVWGQGTTVTLSS VL: DIVMTQSPLSLPVTPGEPASISCRSSQSLLHSNGYNYLDWYLQKPGQSPHLLIYLASNRASGVPDRFSGSGSGTDFTLKISRVEAEDVGFYYCMQTLQIPLTFGGGTKVEIK | 1760 pM | 660 pM | 290 pM |  |  | 
37E10_15B5 (antibody, V domains shown) VH: QVQLVESGGGVVQPGRSLRLSCAASGFTFRSHGMHWVRQAPGKGLEWVAVIWYDGSSEYYADSVKGRFTISRDNSKNTLYLQMNSLRAEDTAVYYCARENVYGSGWFFDYWGQGTLVTVSS VL: EIVMTQSPATLSVSPGERASLSCRASQSVGSNLAWYQQRPGQAPRLLIFGASTRATGIPARFSGSRSGTEFTLTISSLQSEDFALYYCQQYNNWPPWTFGQGTKLEIK |  | 190 pM | 150 pM | 320 pM | < 1000 pM | < 1000 pM
44E5_15C5 (antibody, V domains shown) VH: QVQLVESGGGVVQPGRSLRLSCAASGFTFRSHGMHWVRQAPGKGLEWVAVIWYDGSSDYYADSVKGRFTISRDNSKNTLFLQMNSLSAEDTAVYYCARENVYGSGWFFDYWGQGTLVTVSS VL: EIVMTQSPATLSVSPGERASLSCRASQSVGSNLAWYQQKPGQAPRLLIFGASTRATGIPARFSGSRSGTEFTLTISSLQSEDFALYYCQQYNNWPPWTFGQGTKLEIK |  | 180 pM | 170 pM | 440 pM | < 1000 pM | < 1000 pM
5G8_18A1 (antibody, V domains shown) VH: QVELQESGPGLVKPSDTLSLTCTVTGGSISTYYWSWIRQPPGKGLEWIGYIFYTGTTNYNPSLKSRVTISVDASKNQFSLKLNSVTAADTAVYYCARDGSLDYWGQGALVTVSS VL: DIQMTQSPSSLSASVGDRVTITCRASQSISNYLNWYQQKPGKAPKLLIFVASLLQSGVPSRFSGSGSGTDFTLTISSLQPEDFATYYCQQSYSTPFTFGPGTKLEIK |  | 830 pM | 580 pM |  |  | 
16H2_17D2 (antibody, V domains shown) VH: QVQLVESGGGVVQPGGSLRLSCAASGFTFSSHGMHWVRQAPGKGLEWVAVIWYDGSNKFYTDSVQGRFTISRDNSKNTLNLQMNSLRAEDTAVYYCAREGLRAGYYFDFWGQGTLVTVSS VL: DIQMTQSPSSLSASVGDRVTITCRASQRISFYSNWYQQKPGKAPKLLIYAASSLQSGVPSRFSGSGSGTDFTLTISSLQPEDFATYFCQQSHSTPLTFGGGTKLEIK |  | 90 pM | 100 pM |  |  | 
